Assay results from paper doi:10.1101/2025.10.16.682774 (bioRxiv, 2025).

Biological target: T1, flag-tagged p115 head domain (1-655) (human, UniProt O60763 1-655)
T1 sequence (looked up): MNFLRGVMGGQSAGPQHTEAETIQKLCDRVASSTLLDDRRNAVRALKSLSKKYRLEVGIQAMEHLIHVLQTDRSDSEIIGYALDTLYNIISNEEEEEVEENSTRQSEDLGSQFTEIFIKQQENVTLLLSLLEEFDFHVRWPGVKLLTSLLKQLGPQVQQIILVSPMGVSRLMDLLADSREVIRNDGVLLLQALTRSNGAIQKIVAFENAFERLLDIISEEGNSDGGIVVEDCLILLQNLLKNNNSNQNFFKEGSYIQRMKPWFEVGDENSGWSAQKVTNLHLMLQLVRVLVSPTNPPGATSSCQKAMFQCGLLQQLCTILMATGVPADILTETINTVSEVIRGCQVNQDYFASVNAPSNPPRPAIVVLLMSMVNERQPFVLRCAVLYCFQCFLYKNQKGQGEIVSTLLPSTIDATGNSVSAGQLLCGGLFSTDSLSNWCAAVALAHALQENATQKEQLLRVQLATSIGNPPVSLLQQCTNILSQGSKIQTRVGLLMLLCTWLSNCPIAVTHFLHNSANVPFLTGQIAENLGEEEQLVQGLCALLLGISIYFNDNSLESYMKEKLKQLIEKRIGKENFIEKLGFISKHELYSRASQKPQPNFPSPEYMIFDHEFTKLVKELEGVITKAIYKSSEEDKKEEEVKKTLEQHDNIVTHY
Test: pull-down

binding result: binds
B1: Sec16A(650-776)-GFP (domain or fragment, human, UniProt O15027 650-776, looked up)
chain: ALPDASPGNLEQPPDNMETLCAPQVCPLPLNSTTEAVHMLPHAGAPPLDTVYPAPEKRPSARTQGPVKCESPATTLWAQSELPDFGGNVLLAPAAPALYVCAKPQPPVVQPPEEAMSGQQSRNPSSA
